The values that follow come from the DeepSol protein solubility set.

The series is described as follows: soluble on expression in E. coli; label from the status in PepcDB or PDB records.
Consider “MGSDKIHHHHHHMTVNDYALVTGASGFLGSAVVRQALARGWRVRALVRATSPRANLDGLPVEVFEGDMRDPAALTSAMRGVRYLFHVAADYRLWAPDPEEIVRTNVDGTMAVMEAAQEAGVERVVYTSSVATLRVAGASAPVDETAAMTPHEAIGAYKRSKVLAERVVERMVAERGLPAVIVNPSTPIGPRDVRPTPTGRIIVEAATGKIPAFVETGLNLVHVDDVAAGHFQALERGRIGERYILGGDDVMLQQMLRDIADLCGRRPPTVQLPRWPLYPLAHAAEAVARITRKEPFVTVDGLHMSKYRMFFRSDKARQELGYQPRPYIDGLRDALDWFREAGYLR”, for which the “soluble on expression in E. coli” value is reported as “not soluble”.

As for “MGSDKIHHHHHHMYREFYGLREKPFSKTPDPRYLFLSRGHREALARLQYAVEERELALLTGDIGCGKTTISRALMDAMGEACRFCFIFNPRLSPLEFLRVIARSLGIDNPAGAKDELLKQLTETLYLMHAEGRCPVIVVDEAQLIPDRDVFDEIRLLTNYQLDDQNLMSVVLMGQPELRQILADPVHEPLRQRIALHYHLQPLSLDETLEYIDFRLEVAGGTPGLFSPDAVQRIHELSGGVPRKINILATNALLVGYGRDAAWIDASLVEELRDEANLY”, the “soluble on expression in E. coli” value is given as “not soluble”.

“MSLAQAPHPERIYLSGTGIDNTKTWDFFCSAGQNSGKWKKIEVPCNWELQGFGEYTYGRWYTIKGQHPSDETGTYRYKFDAPKSWAGQRVKIFFDGVMTDAEIMINGKPAGEMHQGGFYRFNYDITELLNLGKKNQLEVKVAKESANRSINAAERKADWWLFGGIYRPVWLEVLPQIHMEHFVLNADHQGKLQAAVDMAGDAKGHEIIVSVRSLKDGKTVYTSNGQTTITHSISNSDKEQMISGEWASIIPWSTENPNLYVAKLELKNPEGKIVQTRETRIGFRTVEFFPQDGVYLNGTKLVVKGINRHSFSVDGGRTTSAALSRMDALLIKEMNMNAVRSHYPPDEHFLDMCDSLGLVYMDELAGWQNGYDSRVGAKLVKEMIERDVNHPCIILWSNGNEGGWNTQTDPLFAQYDRLQKRHMVHPWADFNDLDTHHYPTYLTGVARFTNGYKVFMPTEFMHAMYDQGGGAGLRDFWDRWCTNPLFAGGFIWVYCDEAPKRSDKGGILDSDKSNAPDGVVGPRREKEGSYYAIRAQWSPIQLKPLLITNHFDGRFLLTNEYTFTNLKDCRMTYKVLSCGTPLQGNAEAGKVIAEGKVQLPSINPGETGTARFELPDSFRKGDVLELEAFDREGKSICNWTYPIHLAKQYFERNLAQTTLTPAPQKAEARQTSDAIELKSSKVSITFDAATGMIRHIKSGETEVPFKDGPVAIGMKMRYEPSLSYTRHSSDGAIYCAKYKGAADSIVWRLTNEGLLYMDAILLNRGSGGGGFDDAFMDAQVFNLGLSFSYPEQNCSGMKWMGRGPYRVWKNRIPGTNYGIWHKDYNNTITGESFENLIYPEFKGYHANLYWATLEGEKTSFTVYSRNDGTFFRVFTPEEPAGRIKDTMPAFPEGDLSFLLDIPAICSFKPIEQQGPNSQPGNIRIKSGDEGLHLNLMFDFREGHHHHHH”: the “soluble on expression in E. coli” value is “soluble”.

For “MSILQKLENSAAAAVKALYGTDPMEGQIQLQKTKREFKGHLTLVVFPFVKMSRKSPEATATEIGEWLLANESAVSAIEVVKGFLNLTIAPRVWLELLNEIRADINFGHKVATEDSPLVMVEYSSPNTNKPLHLGHVRNNLLGYSLSEIMKANGYRVVKTNIVNDRGIHICKSMLAWQKWGDGVTPEKAGKKGDHLIGDFYVLFDKHYKAELNSLMAEGKSKEEAEAASTLMAEAREMLRLWEAGDEKVVDLWRTMNQWVYDGFDATYKMMGVDFDKIYYESETYLVGKEEVLRGLEEGLFVKHSDGSVWADLTKDGLDEKLLLRADGTSVYMTQDIGTAKMRFNDYPINRMIYVVGNEQNYHFQVLSILLDRLGFEFGKGLVHFSYGMVELPEGKMKSREGTVVDADDLMDEMIRTAAEIAAEAGKAAEMDEEESREVARIVGLGSLKYFILKVDPRKNMTFNPKESIDFNGNTGSFVQYTYARIRSLMRRAEAAGYDIPSQLPTDLPLSEKEEALIQKVSEYAEVVSEAGHSYSPALIANYIYDLVKEYNQFYHDFSVLKEEDERIRAFRLALSEVVALTMRKGFALLGIEMPERM”, the “soluble on expression in E. coli” value is listed as “not soluble”.

For the sequence “MLNTRLELNKRIDNNVQLKYTEQKIFGNSKEIIGCEVLLDFEYAKKNQVAWKYLTMMHNGASLLSLIVYVNESILRYVKSNINKVFINVERISLCNSRHVGLITRLNEKMSEHNISLIVEITERGSDIPFVEIKNGLKSLQCSHVKLAMDDYDYKKTDFRSDEIFDYDYIKVDFPKTKAELDSFNNFVFLTSMFTCLIVERIENENDFFSVKNNRIWGYQGFAFCQKESFEGWSDNTSDNNVF”, the “soluble on expression in E. coli” value was “not soluble”.

In the case of “MPGFNYGGKGDGTGWSSERGSGPEPGGGSHGNSGGHDRGDSSNVGNESVTVMKPGDSYNTPWGKVIINAAGQPTMNGTVMTADNSSMVPYGRGFTRVLNSLVNNPVSLEHHHHHH”, the “soluble on expression in E. coli” value is reported as “soluble”.

Consider “MLQDHKITFLGAGSMAESIIAGLLSKKLLLPSQVIATNLCDEAKLTKLEDRYGICTTQNRQEAVRQGTIIFLAMKPKNIEEAIEEIRGEITEKQLFISVLAGTTTSYIETLLAHEVPVVRTMPNTSAKVGASATGLCGGRYANASHVKLATLIFTAIGTVTEVTEDKLDAVTGLAGSGPAYFYYMVEAMERAAVQSGLTESEAKAFISQTLIGTGKRLEQTSKTAEELYKEVMSPGGTTEAGLRVLEQQQMQQAIEEAITAAINRSRELGSTPSLEIKKLEHHHHHH”, for which the “soluble on expression in E. coli” value is “soluble”.

With “MAPVLENRRARHDYEILETYEAGIALKGTEVKSLRAGKVDFTGSFARFEDGELYLENLYIAPYEKGSYANVDPRRKRKLLLHKHELRRLLGKVEQKGLTLVPLKIYFNERGYAKVLLGLARGKKAYEKRREDKKEAVRRALEEL”, the “soluble on expression in E. coli” value is recorded as “soluble”.

With “MDYCCVGRNNNDSVPREVTLLRVKTLMKMANHPRPGDIIQESLDELNVSLREFARAMEIAPSTASRLLTGKAALTPEMAIKLSVVIGSSPQMWLNLQNAWSLAEAEKTVVVSRLRRLVTQ”, the “soluble on expression in E. coli” value is “not soluble”.

As for “MLDANKLQQAVDQAYTQFHSLNGGQNADYIPFLANVPGQLAAVAIVTCDGNVYSAGDSDYRFALESISKVCTLALALEDVGPQAVQDKIGADPTGLPFNSVIALELHGGKPLSPLVNAGAIATTSLINAENVEQRWQRILHIQQQLAGEQVALSDEVNQSEQTTNFHNRAIAWLLYSAGYLYCDAMEACDVYTRQCSTLLNTIELATLGATLAAGGVNPLTHKRVLQADNVPYILAEMMMEGLYGRSGDWAYRVGLPGKSGVGGGILAVVPGVMGIAAFSPPLDEDGNSVRGQKMVASVAKQLGYNVFKG”, the “soluble on expression in E. coli” value is “soluble”.

Regarding “MTLPPTSIADRIARAQPAFSRTQHRMAEYVLAHQFRVATMTIDEFAVAVGVSVATANRFARVLELPGYPQFRAELARGFESALEPVEKLRIELAHSASAAQVFAATLQEDIHNAQMTLQALDAGACERAVEAILNAERVFIIGFGTSGFLAGLLQRGLCMHLHAVESLAGPGGVSHAARQMSRMTSRDLVIALAFPRYLADTVTLANAAKLAGVPVLVLTDKPTSPLAPCATVALYAHMSRQLSSNAETAALGLIEALSAAVAHRAKNSIAAAAGVAQSVMPWLIHGEAGAGKR”, the “soluble on expression in E. coli” value is given as “not soluble”.

For “MKGMKYHDYIWDLGGTLLDNYETSTAAFVETLALYGITQDHDSVYQALKVSTPFAIETFAPNLENFLEKYKENEARELEHPILFEGVSDLLEDISNQGGRHFLVSHRNDQVLEILEKTSIAAYFTEVVTSSSGFKRKPNPESMLYLREKYQISSGLVIGDRPIDIEAGQAAGLDTHLFTSIVNLRQVLDI”, the “soluble on expression in E. coli” value was “soluble”.

Take “MSDKDFFSWRRTMLLRFQRMETAEEVYHEIELQAQQLEYDYYSLCVRHPVPFTRPKVAFYTNYPEAWVSYYQAKNFLAIDPVLNPENFSQGHLMWNDDLFSEAQPLWEAARAHGLRRGVTQYLMLPERALGFLSFSRCSAREIPILSDELQLKMQLLVRESLMALMRLNDE”: the “soluble on expression in E. coli” value is “soluble”.

Regarding “QMLVNKARLANLNVSLEEKVMQRTVVLSEANHKLQQTVRQYEQSQQELRQTQQELTQAAKLALLGELSASINHEINQPLAALRTYTENSQRLLSMERYPMVADNLNKMLSLNETIAEVIARLKVFTRKTSHEPHNEVSILHDAVHNATSILSNKLIKQGVTLKVPTIDHEVRLAIHSVE”, the “soluble on expression in E. coli” value is reported as “not soluble”.
